Reference: CN112279913A (TAIZHOU BAIYING BIOLOGICAL TECH CO LTD, dated 2021)

Target: T1, 人IL-6重组蛋白 (human, UniProt P05231 30-212, limits assumed)
T1 construct: also called 白细胞介素-6; 白介素6
Experiment: indirect ELISA, IL-6 recombinant protein coated at 2 μg/ml, purified antibody from 10 μg/ml in 3-fold dilutions, HRP goat anti-mouse IgG

EC50 [µg/mL]	Binder
< 0.025	抗人IL-6单克隆抗体 克隆019:8-3F8 (antibody, V domains shown) VH: EVKLEESGGGLVQPGGSMKLSCAASGFTFSNYWMNWVRQSPEKGLEWVAEIRLRSNKYATHYAESVRGRFTISRDDSINYVYLQMNNLRAEDTGIYYCTRPRYEGTFDVWGAGTTVTVSS VL: not shown
< 0.025	抗人IL-6单克隆抗体 克隆019:1-2H3 (antibody, V domains shown) VH: QVQLQQSGPQLVRPGASVKISCKASGYSFNRSWMHWVKQRPGQGLEWIGMIDPSDTETRLNQKFKDKATLTVDESSSTAHMQFKRPTSEDSAVYYCARAYGFSIEFAYWGQGTLVTVSA VL: DIQMSQTSSSLPASLGDRVTISCKASQDIRSYLNWYQQKPDGTVKLLIYYTSRLHSGVPSRFSGSGSGTDFSLTISNLEQEDIATYFCQQGATLPLTFGAGTKLELK
